Source: IntAct's records for PubMed 24121231

Biological target: not2_yeast CDC36 (UniProt P06100)
UniProt P06100, sequence (P06100 whole entry): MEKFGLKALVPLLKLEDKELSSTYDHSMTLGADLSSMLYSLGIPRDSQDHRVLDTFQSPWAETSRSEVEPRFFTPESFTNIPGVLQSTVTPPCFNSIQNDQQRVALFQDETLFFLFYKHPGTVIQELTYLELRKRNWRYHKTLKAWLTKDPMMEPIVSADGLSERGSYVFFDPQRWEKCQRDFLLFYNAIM

Substance: General negative regulator of transcription subunit 1 (Saccharomyces cerevisiae), P25655 F1751E
- effect of a mutation on the interaction: disrupting interaction strength

Substance: General negative regulator of transcription subunit 1 (Saccharomyces cerevisiae), P25655 R1811E;L1814E
- effect of a mutation on the interaction: disrupting interaction strength
